In one assay the target is T1, (GP)15: H-C(GP)15-OH.
T1 construct: synthetic, not coupled to BSA; also called poly-GP DPR protein peptide
T1 peptide: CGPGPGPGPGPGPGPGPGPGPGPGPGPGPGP
Kind of assay: indirect ELISA, coated uncoupled peptide.

Assay [1] concerns the target T2, BSA-coupled (GR)15 DPR protein peptide (bovine, UniProt P02769 25-607, conjugated via a bifunctional linker (SMCC) to bovine serum albumin).
T2 construct: also called BSA-(GR)15
Kind of assay: Western blot of BSA-coupled peptides. As to the method: (§1) Resolved proteins were then electroblotted (Novex® Semi-Dry Blotter, 1 h, 25V) on methanol-activated PVDF membranes (Immobilon®-P Transfer Membrane, Merck & Cie, Schaffhausen, Switzerland) by the use of Novex® NuPAGE® transfer buffer 2× (Life Technologies Europe B.V., Zug, Switzerland). Non-specific binding sites were blocked overnight at 4° C. (or alternatively for 1 h at room temperature) with PBS/0.1% Tween®-20 containing 2% BSA (Sigma-Aldrich, Buchs, Switzerland) (PBST). […] Membranes were washed three times in PBST for 15 min at RT and then incubated with a donkey anti-human IgG Fcγ-specific antibody conjugated with HRP (1:20000 or 1:10000 dilution, Jackson ImmunoResearch Laboratories, Inc., West Grove, USA) for 1 h at room temperature. Antibody binding was determined by membrane development using ECL and ImageQuant 350 detection (GE Healthcare, Otelfingen, Switzerland).
(§2) The binding specificity of the human-derived antibodies to BSA-coupled C9orf72 dipeptide repeat proteins (GA)₁₅, (GP)₁₅, (GR)₁₅, (PA)₁₅ and (PR)₁₅ was determined by Western blot analysis.

Assay [2] concerns the target T3, BSA-coupled (PA)15 DPR protein peptide (bovine, UniProt P02769 25-607, conjugated via a bifunctional linker (SMCC) to bovine serum albumin).
T3 construct: also called BSA-(PA)15
Kind of assay: Western blot of BSA-coupled peptides. The procedure:
as §1, §2

The target in assay [3] is T4, BSA-coupled (PR)15 DPR protein peptide (bovine, conjugated via a bifunctional linker (SMCC) to bovine serum albumin).
T4 construct: also called BSA-(PR)15
T4 sequence (peptide, as listed by the source limits assumed, chain 1 of 2): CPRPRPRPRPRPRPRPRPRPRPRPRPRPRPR
T4 sequence (P02769 25-607 limits assumed, chain 2 of 2): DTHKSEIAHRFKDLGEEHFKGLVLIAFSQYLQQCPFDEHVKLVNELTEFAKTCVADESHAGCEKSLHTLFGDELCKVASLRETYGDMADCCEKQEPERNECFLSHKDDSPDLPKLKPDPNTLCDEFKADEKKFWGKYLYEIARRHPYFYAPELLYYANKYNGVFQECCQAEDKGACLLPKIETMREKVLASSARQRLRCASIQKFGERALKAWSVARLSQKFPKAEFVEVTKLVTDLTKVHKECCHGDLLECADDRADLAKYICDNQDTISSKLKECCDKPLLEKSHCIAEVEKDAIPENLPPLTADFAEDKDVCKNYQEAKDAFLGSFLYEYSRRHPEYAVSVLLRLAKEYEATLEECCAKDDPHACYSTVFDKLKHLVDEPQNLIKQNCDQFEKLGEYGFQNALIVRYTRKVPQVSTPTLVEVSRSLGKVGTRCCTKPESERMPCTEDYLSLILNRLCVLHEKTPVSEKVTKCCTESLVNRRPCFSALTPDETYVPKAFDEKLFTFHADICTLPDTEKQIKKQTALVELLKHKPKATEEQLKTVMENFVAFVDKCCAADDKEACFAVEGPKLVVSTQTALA
Kind of assay: Western blot of BSA-coupled peptides. As to the method:
as §1, §2

Assay [4] addresses T5, monomeric C9orf72 (GA)20 DPR protein peptide preparation (C-terminal amide).
T5 construct: also called monomeric (GA)20
T5 peptide: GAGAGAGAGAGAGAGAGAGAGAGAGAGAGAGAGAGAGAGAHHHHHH
Kind of assay: sandwich ELISA, preparation captured by anti-His antibody. The procedure: (§3) 96-well microplates (Corning Incorporated, Corning, USA) were coated with monoclonal mouse anti-His tag antibody (Takara Bio Europe/Clontech, Saint-Germain-en-Laye, France) at a concentration of 10 μg/ml in coating buffer (15 mM Na₂CO₃, 35 mM NaHCO₃, pH 9.42) overnight at 4° C. Non-specific binding sites were blocked for 1 h at room temperature with PBS/0.1% Tween®-20 containing 2% BSA (Sigma-Aldrich, Buchs, Switzerland). After a washing step, his-tagged (GA)₂₀ DPR protein peptide preparations at equal concentration of 5 μM in PBS (pH 7.4) were added for target-trapping by the anti-His tag antibody for 1 h at room temperature. […] Antibody binding to DPR protein peptides was detected by a donkey anti-human IgG Fcγ-specific antibody conjugated with HRP at 1:5000 dilution (Jackson ImmunoResearch Laboratories, Inc., West Grove, USA) for 1 h at RT. Binding was determined by measurement of HRP activity in a standard colorimetric assay. EC₅₀ values were estimated by non-linear regression using GraphPad Prism software (San Diego, USA).

In assay [5] the target is T6, aggregated C9orf72 (GA)20 DPR protein peptide preparation (C-terminal amide).
T6 construct: also called aggregated (GA)20; amyloid-fibril like aggregated (GA)20
T6 peptide: T5 peptide
The description is as above. As to the method:
as §3

T2 sequence (peptide, as listed by the source limits assumed, chain 1 of 2): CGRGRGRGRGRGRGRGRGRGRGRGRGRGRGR
T2 sequence (P02769 25-607 limits assumed, chain 2 of 2): as the sequence (P02769 25-607 limits assumed, chain 2 of 2) above
T3 sequence (peptide, as listed by the source limits assumed, chain 1 of 2): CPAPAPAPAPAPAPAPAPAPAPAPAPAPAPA
T3 sequence (P02769 25-607 limits assumed, chain 2 of 2): as the sequence (P02769 25-607 limits assumed, chain 2 of 2) above

B1: NI-308.46E9 (antibody, V domains shown)
VH: QVQLQESGPGLVKPSETLSLTCTVSGASISGSTYYWGWIRQPPGKGLEYIGRIYYSGSTYYNPSLKSRATISVDTSKNQLSLTLSSVTAADTAVYYCVRPFYAGSGNSPFDYWGQGTLVTVSS
VL: CEIVLTQSPATVSVSPGERATLSCRASQSVSTNLAWYQQKPGQPPRLLIYGASTRATGIPARFSGSGSGAEFTLTISSLQSEDFVVYYCQQYNNWPPAFGGGTKVEIK
notes: Recombinant complete human IgG1, kappa
Consider B1, for which it took 13.9 nM to reach a half-maximal effect with (GP)15: H-C(GP)15-OH (EC50). The binding result in assay [1], in assay [2] and in assay [3] was “no binding” each time.

B2: NI-308.18F7 (antibody, V domains shown)
VH: QVQLQESGPGLVKPSETLSVTCTVSGGSINDYYWNWIRQPAGKGLEWIGRIYASGTINYNPSLQSRVTMSIDTSKNQFSLDLISVSAADTAVYYCARWGQVVGDYYYGMDVWGQGTTVTVSS
VL: EIVLTQSPLSLSVTPGEPASISCKSSQSLQHTNGYNYLDWYLLKPGQSPQLLIFLTSNRASGVPDRFSGSGSGTNFTLKISRVEAEDVGVYYCMEGIQLWTFGQGTKLEIK
notes: as for B1
B2: the figures for the EC50 in assay [4] and in assay [5] were 0.64 nM and 2.9 nM, respectively.

B3: NI-308.5G2 (antibody, V domains shown)
VH: EVQLVQSGADLRNPGASVTVSCTASGYHFADNAINWLRQAPGQRLEWMGWINIYSGNTKYSQNFQGRVTFTRNTSASTAFMHLRSLRSEDTAVYFCARDPDSSGYYLPYFDYWGQGTLVTVSS
VL: DIQLTQSPDSLTLSLGERATINCKSSQSVFYNSNNKNYLAWYQQKPGQPPKLLMYWASTRESGVTDRFSGSGSGTDFTLTITNLQAEDVAVYYCQQFYSSPLTFGGGTKVEIK
notes: as for B1
In turn, B3 had an EC50 with (GP)15: H-C(GP)15-OH of 0.88 nM. In addition, the binding result in assay [1], in assay [2] and in assay [3] was “no binding” throughout.

B4: NI-308.15O7 (antibody, V domains shown)
VH: QVQLVESGGGVVQPGRSLRLSCAASGFTFSNHAMHWVRQAPGKGLEWVAVISYDGENTYYADSIEGRFTISRDNFKNTLFLQMYSLTADDTAMYFCARGGRRGHFTSYYLDYWGQGTLVTVSS
VL: CDIQMTQSPSSLSASVGDRVTITCRASQNIDKYLNWYQQIPGKAPKLLIYAASSLHSGVPSRFSGSGSGTDFSLTISSLQPEDFAIYYCQQSYSSFRTFGQGTKLEIK
As for B4, the values for the EC50 in assay [4] and in assay [5] were 6.3 nM and 8.1 nM, respectively.

The values are drawn from US20200010567A1 (NEURIMMUNE, published 2020).
